Results on three substances are retold here after article PMC12807514.

Where two headings read alike, the source gives them in different places.

Experiment [1] deals with CCR7 (Homo sapiens) (UniProt P32248). Particulars: cited from earlier work.
The target of experiment [2] is C-C Chemokine Receptor 7 (CCR7), endogenous in CEM cells (human (endogenous in CEM)) (UniProt P32248).
The target in experiment [3] is CCR7 (Homo sapiens) (UniProt P32248). Particulars: cited from earlier work. This is another data set of the same source.

Sequence of CCL19 (Q99731 22-98): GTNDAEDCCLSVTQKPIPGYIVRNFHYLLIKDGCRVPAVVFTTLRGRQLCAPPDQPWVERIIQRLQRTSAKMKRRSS

What is called Kd is a measure of binding affinity in units of concentration. As to CCL19 (from UniProt Q99731), the Kd in experiment [1] was 100 pM.
With “human C-C Chemokine Ligand 19 (hCCL19) (from UniProt Q99731 22-98)”, the CCR7 internalization (CCR7 left on the surface, flow cytometry) in CEM T cells with 200 nM CCL19, measured at 2 min intervals over 10 min in experiment [2] is 80%.
For CCL21 (from UniProt O00585), in experiment [3], the Kd was 100 pM.
